Laboratory results published in US20240368233A1 (University of Washington, published 2024).

T1: DFX
T1 construct: Bivalent connector
T1 chain: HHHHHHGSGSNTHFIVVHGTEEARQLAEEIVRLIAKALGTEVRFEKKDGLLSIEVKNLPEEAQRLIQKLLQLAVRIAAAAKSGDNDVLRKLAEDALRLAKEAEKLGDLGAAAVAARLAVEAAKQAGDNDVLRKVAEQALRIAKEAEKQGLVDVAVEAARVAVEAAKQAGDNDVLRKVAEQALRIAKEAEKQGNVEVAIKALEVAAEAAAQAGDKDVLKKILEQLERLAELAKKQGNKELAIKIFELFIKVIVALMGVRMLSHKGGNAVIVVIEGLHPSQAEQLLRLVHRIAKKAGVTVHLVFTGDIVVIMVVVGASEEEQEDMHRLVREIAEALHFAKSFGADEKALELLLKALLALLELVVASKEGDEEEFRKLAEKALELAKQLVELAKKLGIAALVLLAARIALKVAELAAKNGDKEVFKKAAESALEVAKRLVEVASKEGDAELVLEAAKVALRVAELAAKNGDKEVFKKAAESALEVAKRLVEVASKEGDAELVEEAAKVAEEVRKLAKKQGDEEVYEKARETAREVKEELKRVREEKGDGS

T2: DF206
T2 construct: Bivalent connector
T2 chain: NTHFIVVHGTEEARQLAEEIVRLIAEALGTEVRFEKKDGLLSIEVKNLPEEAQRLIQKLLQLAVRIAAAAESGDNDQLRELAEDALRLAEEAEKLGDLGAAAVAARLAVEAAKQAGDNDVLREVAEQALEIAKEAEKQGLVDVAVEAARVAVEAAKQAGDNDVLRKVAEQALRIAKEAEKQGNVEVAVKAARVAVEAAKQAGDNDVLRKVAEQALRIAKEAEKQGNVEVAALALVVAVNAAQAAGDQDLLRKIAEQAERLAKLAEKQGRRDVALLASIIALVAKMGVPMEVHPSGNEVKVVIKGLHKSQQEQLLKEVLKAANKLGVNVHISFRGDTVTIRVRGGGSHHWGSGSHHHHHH

T3: DF202
T3 construct: Bivalent connector
T3 chain: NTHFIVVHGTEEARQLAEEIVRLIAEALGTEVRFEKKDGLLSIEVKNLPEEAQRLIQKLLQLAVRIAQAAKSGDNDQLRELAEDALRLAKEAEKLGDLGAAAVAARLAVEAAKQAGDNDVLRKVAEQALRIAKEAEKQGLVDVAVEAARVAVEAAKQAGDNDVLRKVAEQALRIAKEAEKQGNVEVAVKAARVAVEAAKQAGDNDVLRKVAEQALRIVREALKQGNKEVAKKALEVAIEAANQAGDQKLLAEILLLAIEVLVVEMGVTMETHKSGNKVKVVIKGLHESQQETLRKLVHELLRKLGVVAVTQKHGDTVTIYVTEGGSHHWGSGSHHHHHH

T4: LHD274 B62
T4 construct: also called LHD274 B DHR62 C
T4 single chain, LHD274 chain B fused to DHR62: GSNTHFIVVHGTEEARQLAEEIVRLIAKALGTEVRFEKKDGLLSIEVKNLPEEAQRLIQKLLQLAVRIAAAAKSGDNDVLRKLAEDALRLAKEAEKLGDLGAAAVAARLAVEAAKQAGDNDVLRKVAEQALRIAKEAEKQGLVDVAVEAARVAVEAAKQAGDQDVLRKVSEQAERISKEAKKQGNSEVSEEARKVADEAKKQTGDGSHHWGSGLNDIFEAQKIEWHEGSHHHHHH

T5: DFA-1
T5 construct: Bivalent connector
T5 chain: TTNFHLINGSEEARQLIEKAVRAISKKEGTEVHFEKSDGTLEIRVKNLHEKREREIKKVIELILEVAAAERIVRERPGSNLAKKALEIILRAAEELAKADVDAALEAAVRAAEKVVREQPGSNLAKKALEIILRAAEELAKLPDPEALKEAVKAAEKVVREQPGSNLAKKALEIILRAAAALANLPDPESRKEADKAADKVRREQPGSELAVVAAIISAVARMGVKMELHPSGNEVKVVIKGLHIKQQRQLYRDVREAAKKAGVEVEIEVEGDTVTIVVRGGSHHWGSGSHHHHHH


Tests used:
DFX = molecular target: T1, DFX; assay: negative-stain EM of the heterotrimer; components named in the legend
Protocol: SEC peak fractions were concentrated prior to negative stain EM screening. Samples were then immediately diluted 5 to 150 times in TBS buffer (25 mM Tris pH 8.0, 25 mM NaCl) depending on sample concentration. A final volume of 5 μL was applied to negatively glow discharged, carbon-coated 400-mesh copper grids (01844-F, TedPella, Inc.), then washed with Milli-Q™ Water and stained using 0.75% uranyl formate as previously described (53). Air-dried grids were imaged on a FEI Talos L120C TEM (FEI Thermo Scientific, Hillsboro, OR) equipped with a 4K×4K Gatan OneView™ camera at a magnification of 57,000× and pixel size of 2.51. Micrographs were imported into CisTEM software or cryoSPARC™ software and a circular blob picker was used to select particles which were then subjected to 2D classification. Ab initio reconstruction and homogeneous refinement in Cn symmetry were used to generate 3D electron density maps (54, 55).

DF206 = molecular target: T2, DF206; assay: SEC of mixed components; trimer listed in Table 6
DF202 = molecular target: T3, DF202; assay: SEC of mixed components; trimer listed in Table 6
LHD274 B62 = molecular target: T4, LHD274 B62; assay: SEC binding assay (Superdex 200, normalised A230) of A, B and the mixture AB
DFA-1 = molecular target: T5, DFA-1; assay: SEC of mixed components; trimer listed in Table 6

Row | Binder | binding result (DFX) | binding result (DF206) | binding result (DF202) | binding result (LHD274 B62) | binding result (DFA-1)
1 | 274A53 (designed binder, also called LHD274A DHR53 stop; LHD274A53) TTNFHLINGSEEARQLIEKAVRAISKKEGTEVHFEKSDGTLEIRVKNLHEKREREIKKVIELILEVAAAERIVRERPGSNLAKKALEIILRAAEELAKADVDAALEAAVRAAEKVVREQPGSNLAKKALEIILRAAEELAKLPDPEALKEAVKAAEKVVREQPGSELAKKALEIIERAAEELKKSPDPEAQKEAKKAEQKVREESGSHHWGSGLNDIFEAQKIEWHEGSHHHHHH | binds | binds | binds | binds | 
2 | 101B62 (designed binder, also called LHD101B62) HHHHHHGSGLNDIFEAQKIEWHEAENLYFQSGSNDEKRKRAEKALQRAQEAEKKGDVEEAVRAAQEAVRAAKESGDNDVLRKVAEQALRIAKEAEKQGNVEVAVKAARVAVEAAKQAGDNDVLRKVAEQALRIAKEALKQGNVDVAAKAAQVAEEAAKQAGDQDVLRKVKEVQIEIVLAAIELTVRKMGVTMETHRSGREVKVVIKGLHESQQEQLLEDVLRIAELAGVRVRIRFKGDTVTIVVRG |  |  |  |  | binds
